Test results as given in the supplement of paper PMC9112550, “Optimization of the antimicrobial peptide Bac7 by deep mutational scanning” (BMC Biology, 2022).

system: Escherichia coli TOP10; assay: shrunken log2 fold change of peptide-encoding DNA abundance (4.5 h post-induction vs induction); higher = less antimicrobial activity (less host growth inhibition); conditions: time post-induction: 4.5 h; library: site-saturation at positions 5, 18, 19, 20
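Also: peptides expressed intracellularly from a pBAD plasmid library in pooled LB shake-flask culture, induced with 0.3% L-arabinose, DNA abundance read by NGS, three biological replicates, DESeq2 with apeglm shrinkage.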

First: RRIRARPPRLPRPRPRPWNHPRP
Second: RRIRGRPPRLPRPRPRPMPMPRP
The “shrunken log2 fold change” value of the first is lower: -0.128 for the first, 0.352 for the second.

RRIRERPPRLPRPRPRPCHVPRP and RRIRYRPPRLPRPRPRPCERPRP are within 0.2 log units of each other in “shrunken log2 fold change” value: -0.0775 for the first, 0.0112 for the second.

Going from RRIRDRPPRLPRPRPRPDRFPRP to RRIRMRPPRLPRPRPRPMFNPRP, the “shrunken log2 fold change” value falls from 0.0112 to -0.343.

RRIRCRPPRLPRPRPRPQGMPRP and RRIRIRPPRLPRPRPRPEFHPRP are within 0.2 log units of each other in “shrunken log2 fold change” value: 0.00583 for the first, 0.0992 for the second.

First: RRIRHRPPRLPRPRPRPWYTPRP
Second: RRIRQRPPRLPRPRPRPYWTPRP
The “shrunken log2 fold change” value of the first is higher: -0.17 for the first, -0.496 for the second.

First: RRIRDRPPRLPRPRPRPFQHPRP
Second: RRIRIRPPRLPRPRPRPHWNPRP
The “shrunken log2 fold change” value of the first is higher: -0.202 for the first, -0.758 for the second.

First: RRIRRRPPRLPRPRPRPFMYPRP
Second: RRIRRRPPRLPRPRPRPQEEPRP
The “shrunken log2 fold change” value of the first is lower: -0.174 for the first, 0.0332 for the second.

First: RRIRLRPPRLPRPRPRPDCWPRP
Second: RRIRHRPPRLPRPRPRPSPDPRP
The “shrunken log2 fold change” value of the first is higher: 0.362 for the first, -0.293 for the second.

RRIRSRPPRLPRPRPRPWGWPRP and RRIRWRPPRLPRPRPRPKDVPRP are within 0.2 log units of each other in “shrunken log2 fold change” value: 0.0685 for the first, -0.0454 for the second.

First: RRIRIRPPRLPRPRPRPSSLPRP
Second: RRIRPRPPRLPRPRPRPPFCPRP
The “shrunken log2 fold change” value of the first is lower: -0.713 for the first, 0.317 for the second.

Compared with RRIRCRPPRLPRPRPRPLYRPRP, RRIRLRPPRLPRPRPRPCLIPRP is higher in “shrunken log2 fold change” value: -1.14 for the first, -0.0321 for the second.

RRIRLRPPRLPRPRPRPFYPPRP and RRIRLRPPRLPRPRPRPSWNPRP are within 0.2 log units of each other in “shrunken log2 fold change” value: -0.504 for the first, -0.342 for the second.

RRIRQRPPRLPRPRPRPEKVPRP and RRIRNRPPRLPRPRPRPKVKPRP are within 0.2 log units of each other in “shrunken log2 fold change” value: -0.155 for the first, -0.196 for the second.

First: RRIRKRPPRLPRPRPRPCFQPRP
Second: RRIRARPPRLPRPRPRPLVCPRP
The “shrunken log2 fold change” value of the first is lower: -0.112 for the first, 0.483 for the second.

RRIRIRPPRLPRPRPRPDECPRP and RRIRWRPPRLPRPRPRPCAQPRP are within 0.2 log units of each other in “shrunken log2 fold change” value: 0.0238 for the first, 0.162 for the second.

Compared with RRIRPRPPRLPRPRPRPTRFPRP, RRIRFRPPRLPRPRPRPHTEPRP is lower in “shrunken log2 fold change” value: 0.41 for the first, -0.731 for the second.

RRIRYRPPRLPRPRPRPRKRPRP and RRIRWRPPRLPRPRPRPDTWPRP are within 0.2 log units of each other in “shrunken log2 fold change” value: 0.266 for the first, 0.0829 for the second.

First: RRIRDRPPRLPRPRPRPTPFPRP
Second: RRIRKRPPRLPRPRPRPRLQPRP
The “shrunken log2 fold change” value of the first is lower: -0.13 for the first, 0.475 for the second.

RRIRFRPPRLPRPRPRPGFYPRP and RRIRYRPPRLPRPRPRPGWFPRP are within 0.2 log units of each other in “shrunken log2 fold change” value: -0.28 for the first, -0.112 for the second.

Going from RRIRMRPPRLPRPRPRPWHHPRP to RRIRRRPPRLPRPRPRPRAPPRP, the “shrunken log2 fold change” value rises from -0.0514 to 1.02.

Compared with RRIRCRPPRLPRPRPRPLYGPRP, RRIRRRPPRLPRPRPRPLWCPRP is higher in “shrunken log2 fold change” value: -0.914 for the first, 0.186 for the second.

Going from RRIRERPPRLPRPRPRPDNAPRP to RRIRRRPPRLPRPRPRPFKFPRP, the “shrunken log2 fold change” value rises from -0.245 to -0.0354.

Going from RRIRMRPPRLPRPRPRPAMRPRP to RRIRNRPPRLPRPRPRPTDFPRP, the “shrunken log2 fold change” value falls from 1.14 to -0.164.

Compared with RRIRLRPPRLPRPRPRPWCKPRP, RRIRRRPPRLPRPRPRPVEEPRP is higher in “shrunken log2 fold change” value: -0.213 for the first, 0.105 for the second.

Going from RRIRYRPPRLPRPRPRPSVWPRP to RRIRQRPPRLPRPRPRPVGRPRP, the “shrunken log2 fold change” value rises from 0.0896 to 0.336.

Going from RRIRARPPRLPRPRPRPMHSPRP to RRIRFRPPRLPRPRPRPVIQPRP, the “shrunken log2 fold change” value falls from -0.106 to -0.414.

Compared with RRIRRRPPRLPRPRPRPSIEPRP, RRIRARPPRLPRPRPRPEHVPRP is higher in “shrunken log2 fold change” value: -0.232 for the first, 0.269 for the second.

First: RRIRHRPPRLPRPRPRPVWAPRP
Second: RRIRRRPPRLPRPRPRPPPKPRP
The “shrunken log2 fold change” value of the first is lower: 0.193 for the first, 0.995 for the second.

RRIRARPPRLPRPRPRPLEIPRP and RRIRTRPPRLPRPRPRPEWKPRP are within 0.2 log units of each other in “shrunken log2 fold change” value: 0.0728 for the first, -0.076 for the second.

Going from RRIRIRPPRLPRPRPRPCWTPRP to RRIRMRPPRLPRPRPRPWVCPRP, the “shrunken log2 fold change” value rises from -0.281 to 0.154.

First: RRIRSRPPRLPRPRPRPWPRPRP
Second: RRIRKRPPRLPRPRPRPRKDPRP
The “shrunken log2 fold change” value of the first is higher: 0.646 for the first, 0.222 for the second.

RRIRARPPRLPRPRPRPILGPRP and RRIRTRPPRLPRPRPRPTFRPRP are within 0.2 log units of each other in “shrunken log2 fold change” value: 0.0597 for the first, -0.0105 for the second.

Going from RRIRIRPPRLPRPRPRPGEDPRP to RRIRSRPPRLPRPRPRPTKVPRP, the “shrunken log2 fold change” value falls from 0.00101 to -0.213.

Compared with RRIRYRPPRLPRPRPRPIVNPRP, RRIRIRPPRLPRPRPRPMKCPRP is higher in “shrunken log2 fold change” value: -0.558 for the first, -0.0692 for the second.

RRIRQRPPRLPRPRPRPGIRPRP and RRIRSRPPRLPRPRPRPGWDPRP are within 0.2 log units of each other in “shrunken log2 fold change” value: 0.346 for the first, 0.444 for the second.

RRIRKRPPRLPRPRPRPWNDPRP and RRIRLRPPRLPRPRPRPMYEPRP are within 0.2 log units of each other in “shrunken log2 fold change” value: 0.0299 for the first, 0.129 for the second.

First: RRIRGRPPRLPRPRPRPYSGPRP
Second: RRIRTRPPRLPRPRPRPMTHPRP
The “shrunken log2 fold change” value of the first is higher: -0.0221 for the first, -0.633 for the second.

RRIRSRPPRLPRPRPRPFFEPRP and RRIRIRPPRLPRPRPRPRYCPRP are within 0.2 log units of each other in “shrunken log2 fold change” value: -0.161 for the first, -0.157 for the second.

First: RRIRERPPRLPRPRPRPFLWPRP
Second: RRIRERPPRLPRPRPRPWLIPRP
The “shrunken log2 fold change” value of the first is higher: 0.155 for the first, -0.397 for the second.

First: RRIRWRPPRLPRPRPRPPWNPRP
Second: RRIRRRPPRLPRPRPRPCIYPRP
The “shrunken log2 fold change” value of the first is higher: 0.279 for the first, 0.0603 for the second.

RRIRFRPPRLPRPRPRPSGKPRP and RRIRHRPPRLPRPRPRPERTPRP are within 0.2 log units of each other in “shrunken log2 fold change” value: -0.0093 for the first, 0.0203 for the second.

RRIRGRPPRLPRPRPRPIKFPRP and RRIRTRPPRLPRPRPRPVWPPRP are within 0.2 log units of each other in “shrunken log2 fold change” value: 0.211 for the first, 0.332 for the second.

First: RRIRLRPPRLPRPRPRPEPFPRP
Second: RRIRLRPPRLPRPRPRPPEGPRP
The “shrunken log2 fold change” value of the first is lower: -0.0343 for the first, 0.662 for the second.

RRIRFRPPRLPRPRPRPWFRPRP and RRIRHRPPRLPRPRPRPIRPPRP are within 0.2 log units of each other in “shrunken log2 fold change” value: -0.151 for the first, -0.125 for the second.

RRIRYRPPRLPRPRPRPYEKPRP and RRIRQRPPRLPRPRPRPRFHPRP are within 0.2 log units of each other in “shrunken log2 fold change” value: -0.117 for the first, -0.177 for the second.

RRIRKRPPRLPRPRPRPLDIPRP and RRIRTRPPRLPRPRPRPVYDPRP are within 0.2 log units of each other in “shrunken log2 fold change” value: -0.0215 for the first, -0.156 for the second.

Going from RRIRSRPPRLPRPRPRPHCLPRP to RRIRHRPPRLPRPRPRPKGMPRP, the “shrunken log2 fold change” value falls from -0.0826 to -0.448.

RRIRPRPPRLPRPRPRPGKHPRP and RRIRWRPPRLPRPRPRPLKCPRP are within 0.2 log units of each other in “shrunken log2 fold change” value: -0.141 for the first, 0.0309 for the second.

RRIRMRPPRLPRPRPRPAICPRP and RRIRIRPPRLPRPRPRPKVLPRP are within 0.2 log units of each other in “shrunken log2 fold change” value: 0.171 for the first, -0.0165 for the second.

Compared with RRIRIRPPRLPRPRPRPKNGPRP, RRIRYRPPRLPRPRPRPLYDPRP is lower in “shrunken log2 fold change” value: -0.202 for the first, -0.51 for the second.

First: RRIRRRPPRLPRPRPRPIQMPRP
Second: RRIRDRPPRLPRPRPRPGLVPRP
The “shrunken log2 fold change” value of the first is lower: 0.272 for the first, 0.644 for the second.

Going from RRIRKRPPRLPRPRPRPWPFPRP to RRIRIRPPRLPRPRPRPLPKPRP, the “shrunken log2 fold change” value rises from 0.0352 to 0.263.

Compared with RRIRMRPPRLPRPRPRPFERPRP, RRIRVRPPRLPRPRPRPDNPPRP is lower in “shrunken log2 fold change” value: 0.122 for the first, -0.101 for the second.

RRIRSRPPRLPRPRPRPSHKPRP and RRIRHRPPRLPRPRPRPDFHPRP are within 0.2 log units of each other in “shrunken log2 fold change” value: -0.658 for the first, -0.769 for the second.

For RRIRQRPPRLPRPRPRPAFYPRP, the “shrunken log2 fold change” value was -0.0263.
